2 molecules from paper doi:10.1101/2024.02.25.581584 (bioRxiv, 2024) can be followed below.

Assay [1] addresses T1, CENP-T^6D (CENP-T^6D-GFP-Spy-tag) (human, UniProt Q96BT3 1-242, T11D | T27D | S47D | T85D | T195D | S201D). Nature of the assay: TIRF microscopy of clusters.
The target in assay [2] is T2, CENP-T^2D (human, UniProt Q96BT3 1-242, T11D | T85D). Nature of the assay: TIRF microscopy of clusters.
Assay [3] concerns the target T3, CENP-T^site1 (human, UniProt Q96BT3 1-242, T11D | deletion of amino acids from 76 to 106). The experiment in a line: TIRF microscopy of single molecules.
For assay [4], the target named is T1, CENP-T^6D (CENP-T^6D-GFP-Spy-tag). Nature of the assay: TIRF microscopy of single molecules.
In assay [5] the target is T3, CENP-T^site1. Nature of the assay: TIRF microscopy of single molecules. This is another data set of the same source.
The target in another assay is CENP-T^site2 (human, UniProt Q96BT3 1-242, T85D | deletion of amino acids from 2 to 30). The experiment in a line: TIRF microscopy of single molecules.
Assay [6] addresses T2, CENP-T^2D. The experiment in a line: fluorescence correlation spectroscopy.

B1: Human Bonsai Ndc80 complex with C-terminal GFP (complex)
chain 1: MKRSSVSSGGAGRLSMQELRSQDVNKQGLYTPQTKEKPTFGKLSINKPTSERKVSLFGKRTSGHGSRNSQLGIFSSSEKIKDPRPLNDKAFIQQCIRQLCEFLTENGYAHNVSMKSLQAPSVKDFLKIFTFLYGFLCPSYELPDTKFEEEVPRIFKDLGYPFALSKSSMYTVGAPHTWPHIVAALVWLIDCIKIHTAMKESSPLFDDGQPWGEETEDGIMHNKLFLDYTIKCYESFMSGADSFDEMNAELQSKLKDLFNVDAFKLESLEAKNRALNEQIARLEQERSTANKANAERLKRLQKSADLYKDRLGLEIRKIYGEKLQFIFTNIDPKNPESPFMFSLHLNEARDYEVSDSAPHLEGLAEFQENVRKTNNFSAFLANVRKAFTATVYN
chain 2: METLSFPRYNVAEIVIHIRNKILTGADGKNLTKNDLYPNPKPEVLHMIYMRALQIVYGIRLEHFYMMPVNSEVMYPHLMEGFLPFSNLVTHLDSFLPICRVNDFETADILCPKAKRTSRFLSGIINFIHFREACRETYMEFLWQYKSSADKMQQLNAAHQEALMKLERLEKEVDEDTTVTIPSAVYVAQLYHQVSKIEWDYECEPGMVKGIHHGPSVAQPIHLDSTQLSRKFISDYLWSLVDTEW
For B1, the “stoichiometry N” value was ≤ 2 Ndc80 molecules per CENP-T in assay [1], ~2 Ndc80 molecules per CENP-T in assay [4], ~1 Ndc80 molecules per CENP-T in the assay with CENP-T^site1 [5] and ~1 Ndc80 molecules per CENP-T in the assay with CENP-T^site2. Also, the binding result with CENP-T^2D [2] is given as “binds”. For the same molecule, the “fold reduction of kon of site 1 against CENP-T^2D and CENP-T^6D (model fit)” value with CENP-T^site1 [3] was 8 fold.

B2: Human Bonsai Ndc80 complex, untagged (complex)
chain 1: MKRSSVSSGGAGRLSMQELRSQDVNKQGLYTPQTKEKPTFGKLSINKPTSERKVSLFGKRTSGHGSRNSQLGIFSSSEKIKDPRPLNDKAFIQQCIRQLCEFLTENGYAHNVSMKSLQAPSVKDFLKIFTFLYGFLCPSYELPDTKFEEEVPRIFKDLGYPFALSKSSMYTVGAPHTWPHIVAALVWLIDCIKIHTAMKESSPLFDDGQPWGEETEDGIMHNKLFLDYTIKCYESFMSGADSFDEMNAELQSKLKDLFNVDAFKLESLEAKNRALNEQIARLEQERSTANKANAERLKRLQKSADLYKDRLGLEIRKIYGEKLQFIFTNIDPKNPESPFMFSLHLNEARDYEVSDSAPHLEGLAEFQENVRKTNNFSAFLANVRKAFTATVYN
chain 2: METLSFPRYNVAEIVIHIRNKILTGADGKNLTKNDLYPNPKPEVLHMIYMRALQIVYGIRLEHFYMMPVNSEVMYPHLMEGFLPFSNLVTHLDSFLPICRVNDFETADILCPKAKRTSRFLSGIINFIHFREACRETYMEFLWQYKSSADKMQQLNAAHQEALMKLERLEKEVDEDTTVTIPSAVYVAQLYHQVSKIEWDYECEPGMVKGIHHGPSVAQPIHLDSTQLSRKFISDYLWSLVDTEW
As for B2, in the assay with CENP-T^2D [6], the binding result is given as “binds”.
